The target in this experiment is Recombinant soluble integrin αvβ3 (UniProt P06756). Nature of the experiment: SPR. On the technique in general: In SPR one partner is held on a chip, and binding of the other changes the refractive index at the surface.

What is called Kd is the constant that tells how readily two partners part at equilibrium.

In the case of “Heparin-binding domain (HBD, residues 111-165) of VEGF165, wild type (domain or fragment)”, the Kd came out at 470 nM.
